Consider two substances from patent JP2002506420A.

The target in assay [1] is ヒトCD3抗原 (human CD3 antigen on the surface of human T cells) (human) (UniProt P07766). The assay is described as follows: competition with 125I-labelled mouse M291 on IL-2-activated human T cells; affinity by the method of Berzofsky and Berkower.
Assay [2] addresses FcRII (Fc gamma receptor II on K562 cells) (UniProt P12318). In words: cell-based or functional assay.
Sequence of UniProt P12318 (P12318 34-317): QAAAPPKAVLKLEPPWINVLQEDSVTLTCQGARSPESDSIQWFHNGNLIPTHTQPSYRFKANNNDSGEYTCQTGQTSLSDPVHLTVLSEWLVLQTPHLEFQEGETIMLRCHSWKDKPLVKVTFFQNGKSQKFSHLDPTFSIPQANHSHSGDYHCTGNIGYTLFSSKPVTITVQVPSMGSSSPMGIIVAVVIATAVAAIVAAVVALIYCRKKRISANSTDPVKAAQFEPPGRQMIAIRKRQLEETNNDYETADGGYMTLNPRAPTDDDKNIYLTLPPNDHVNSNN

Sequence of UniProt P07766 (P07766 23-207): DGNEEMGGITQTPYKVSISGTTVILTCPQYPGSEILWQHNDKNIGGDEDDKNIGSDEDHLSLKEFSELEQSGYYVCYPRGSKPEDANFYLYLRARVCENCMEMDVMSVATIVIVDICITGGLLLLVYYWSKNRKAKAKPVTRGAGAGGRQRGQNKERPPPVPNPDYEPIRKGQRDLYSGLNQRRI

For the substance “ヒト化M291 IgG1 (humanized M291, human IgG1) (from UniProt P01857 1-330) (antibody)”, the Ka in assay [1] worked out at 1.6e+09 M⁻¹.
In the case of “キメラOKT3 IgG2 (chimeric OKT3, wild-type human IgG2) (from UniProt P01859 1-326) (antibody)”, the K562細胞の特異的溶解 (reverse lysis, 51Cr release) in assay [2] is < 32%.
